Experimental data taken from the supplement of paper PMC11875167.

test: observed amide hydrogen exchange rate constant kobs (stretched exponential fit, FD-normalized) (s^-1); higher = faster H/D exchange (less protection); conditions: pH 3 (pH read); temperature: 20 °C; D2O: 88%
Summary of the method: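 Jurkat tryptic peptides (LysC/trypsin, carbamidomethylated cysteines) were labeled in 88% D2O, pHread 3, 20 °C, quenched with 0.23% formic acid at 13 times from 18 to 93,600 s, in processing triplicates. MS1 uptake (Q-Exactive HF, HDExaminer, no back-exchange correction) was normalized to full-deuteration controls (24 h, 37 °C). Curves were fitted to a stretched single exponential with β = 0.8. The observed exchange rate constant kobs is the fitted rate.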

Substance | observed amide hydrogen exchange rate constant kobs
EKPYFPIPEEYTFIQNVPLEDR | 0.000754
ELGIWEPLAVK | 0.000742
ELISNASDALDK | 0.00184
ELISNSSDALDK | 0.00235
ELLDLLYK | 0.000866
ELLPEIR | 0.0016
ELQEMDKDDESLIK | 0.00203
ELSDFISYLQR | 0.000898
EMLQQSK | 0.00166
ENALVQMADGNQAQLAMSHLNGHK | 0.00127
EQFLDGDGWTSR | 0.00231
EQGVLSFWR | 0.00106
EQVANSAFVER | 0.00104
ESKDPADETEAD | 0.00321
ESTGAQVQVAGDMLPNSTER | 0.00119
ESTLHLVLR | 0.00129
ESVPEFPLSPPK | 0.00083
ESYSVYVYK | 0.000648
ETIEQEK | 0.00152
EVDEQMLNVQNK | 0.00132
EVFEDAAEIR | 0.002
EVFSMAGVVVR | 0.00144
EVLAGR | 0.00244

Substance | observed amide hydrogen exchange rate constant kobs
EVSTYIK | 0.000877
EVTPEGLQMVK | 0.000799
EVVEEAENGR | 0.00211
EWFLQAAK | 0.00111
FAAATGATPIAGR | 0.00118
FAAYFQQGDMESNGK | 0.00182
FAQPGSFEYEYAMR | 0.00134
FDLMYAK | 0.000933
FEDENFILK | 0.00131
FFEVILIDPFHK | 0.000722
FGYVDFESAEDLEK | 0.00214
FHGTVK | 0.00166
FHVEEEGK | 0.00347
FLILPDMLK | 0.000536
FLPLFDR | 0.00116
FLVYVANFDEK | 0.000821
FNVWDTAGQEK | 0.00146
FPGQLNADLRK | 0.00145
FSELTAEK | 0.00148
FSGWYDADLSPAGHEEAK | 0.00239
FSHEEIAMATVTALRR | 0.000978
FTQAGSEVSALLGR | 0.00109
FVADGIFK | 0.00103

Substance | observed amide hydrogen exchange rate constant kobs
FVSISDLLVPK | 0.000665
FYEAFSK | 0.00122
GADFLVTEVENGGSLGSK | 0.00147
GAEAANVTGPGGVPVQGSK | 0.00103
GALQNIIPASTGAAK | 0.000988
GAVDGGLSIPHSTK | 0.00225
GCITIIGGGDTATCCAK | 0.00119
GDEEGVPAVVIDMSGLR | 0.00109
GDEELDSLIK | 0.000999
GDGPVQGIINFEQK | 0.000693
GEATVSFDDPPSAK | 0.00157
GEENLMDAQVK | 0.00185
GEGQLGPAER | 0.0023
GEMMDLQHGSLFLR | 0.00161
GFGFILFK | 0.000667
GFGFVDFNSEEDAK | 0.00238
GFGFVLFK | 0.000656
GFGFVTYATVEEVDAAMNARPHK | 0.00098
GFSTWLK | 0.000875
GGGQIIPTAR | 0.000898
GGSDGYGSGR | 0.00404
GHYTEGAELVDSVLDVVRK | 0.00131
GIAYIEFK | 0.00091

Substance | observed amide hydrogen exchange rate constant kobs
GIGYLK | 0.00124
GILAADESTGSIAK | 0.00166
GIVDQSQQAYQEAFEISK | 0.000918
GLAPDLPEDLYHLIK | 0.00112
GLFIIDDK | 0.00107
GLSEDTTEETLK | 0.003
GLTPSQIGVILR | 0.00062
GLTSVINQK | 0.000815
GLVGEIIK | 0.000569
GNFGGSFAGSFGGAGGHAPGVAR | 0.00196
GNPTVEVDLFTSK | 0.000833
GNSIIMLEALERV | 0.00109
GPDGLTAFEATDNQAIK | 0.00114
GPSSVEDIK | 0.00156
GRGARGGKAEDK | 0.00275
GSYGDLGGPIITTQVTIPK | 0.000771
GTGIVSAPVPK | 0.00104
GTLDPVEK | 0.00116
GVNLPGAAVDLPAVSEK | 0.0011
GVVDSEDLPLNISR | 0.0013
GVVPLAGTNGETTTQGLDGLSER | 0.00156
GYDVIAQAQSGTGK | 0.00126
GYFEYIEENK | 0.00229

Substance | observed amide hydrogen exchange rate constant kobs
GYISPYFINTSK | 0.000598
GYSFTTTAER | 0.00184
HALIIYDDLSK | 0.00058
HAVSEGTK | 0.00263
HEHQVMLMR | 0.00145
HELLQPFNVLYEK | 0.00104
HFVALSTNTTK | 0.00117
HIADLAGNSEVILPVPAFNVINGGSHAGNK | 0.00138
HIYYITGETK | 0.00121
HLEINPDHPIVETLR | 0.00133
HLEINPDHSIIETLR | 0.00155
HLQLAIRNDEELNK | 0.00184
HQEGEIFDTEK | 0.0025
HQGVMVGMGQK | 0.00127
HQPTAIIAK | 0.00045
HSQFIGYPITLYLEK | 0.000606
HWPFMVVNDAGRPK | 0.00131
HYGGLTGLNK | 0.00221
IACLDFSLQK | 0.000643
IAIYELLFK | 0.000527
IDEPLEGSEDR | 0.00298
IDFYFDENPYFENK | 0.00186
IDNSQVESGSLEDDWDFLPPKK | 0.00156

Substance | observed amide hydrogen exchange rate constant kobs
IDTIEIITDR | 0.000965
IEDGNNFGVAVQEK | 0.00127
IEDLSQQAQLAAAEK | 0.0009
IEDVTPIPSDSTR | 0.00154
IEEELGSK | 0.00244
IETIEVMEDR | 0.00148
IEVIEIMTDR | 0.00104
IFGGLDMLAEK | 0.00145
IFGVTTLDIVR | 0.000765
IFVGGLNPEATEEK | 0.00108
IGAEVYHNLK | 0.0019
IGEHTPSALAIMENANVLAR | 0.000813
IGFPWSEIR | 0.000936
IGLFGGAGVGK | 0.000762
IGPLGLSPK | 0.000838
IHFPLATYAPVISAEK | 0.000691
IHPVSTMVK | 0.000804
IIAPPERK | 0.00142
IIDVVYNASNNELVR | 0.00138
IILDLISESPIK | 0.000711
IINEPTAAAIAYGLDK | 0.000776
IISSIEQK | 0.00126
IITLTGPTNAIFK | 0.000716

Substance | observed amide hydrogen exchange rate constant kobs
IIWQFIK | 0.000404
IKGEHPGLSIGDVAK | 0.00174
ILATPPQEDAPSVDIANIR | 0.00103
ILDSVGIEADDDRLNK | 0.0024
ILEFFGLK | 0.00112
ILGLLDAYLK | 0.00089
ILQDGGLQVVEK | 0.000978
ILTFDQLALDSPK | 0.000724
IMATPEQVGK | 0.000917
IMNTFSVVPSPK | 0.000631
INISEGNCPER | 0.000833
IQLINNMLDK | 0.00081
IREEYPDR | 0.00399
IRYESLTDPSK | 0.00212
ISVVSTK | 0.000812
ISVYYNEATGGK | 0.00138
ITLPVDFVTADKFDENAK | 0.0013
IVEMSTSK | 0.00206
IWDLEGK | 0.00103
IWHHTFYNELR | 0.00224
IYVDDGLISLQVK | 0.000841
